Data reported in patent US20040058445A1.

Target: MHC class I (framework determinant) on human tumor cells of patient 1C

inhibition of lysis of autologous 1C tumor cells in a 4-hour 51Cr release assay: 5 % lysis
Substance: MAb w6/32 (antibody)
